In article PMC3988258:

Biological target: GFP-NAIP2 (mouse) (UniProt Q9QUK4)
Assay: co-IP

Sequence of UniProt Q9QUK4 (Q9QUK4 whole entry): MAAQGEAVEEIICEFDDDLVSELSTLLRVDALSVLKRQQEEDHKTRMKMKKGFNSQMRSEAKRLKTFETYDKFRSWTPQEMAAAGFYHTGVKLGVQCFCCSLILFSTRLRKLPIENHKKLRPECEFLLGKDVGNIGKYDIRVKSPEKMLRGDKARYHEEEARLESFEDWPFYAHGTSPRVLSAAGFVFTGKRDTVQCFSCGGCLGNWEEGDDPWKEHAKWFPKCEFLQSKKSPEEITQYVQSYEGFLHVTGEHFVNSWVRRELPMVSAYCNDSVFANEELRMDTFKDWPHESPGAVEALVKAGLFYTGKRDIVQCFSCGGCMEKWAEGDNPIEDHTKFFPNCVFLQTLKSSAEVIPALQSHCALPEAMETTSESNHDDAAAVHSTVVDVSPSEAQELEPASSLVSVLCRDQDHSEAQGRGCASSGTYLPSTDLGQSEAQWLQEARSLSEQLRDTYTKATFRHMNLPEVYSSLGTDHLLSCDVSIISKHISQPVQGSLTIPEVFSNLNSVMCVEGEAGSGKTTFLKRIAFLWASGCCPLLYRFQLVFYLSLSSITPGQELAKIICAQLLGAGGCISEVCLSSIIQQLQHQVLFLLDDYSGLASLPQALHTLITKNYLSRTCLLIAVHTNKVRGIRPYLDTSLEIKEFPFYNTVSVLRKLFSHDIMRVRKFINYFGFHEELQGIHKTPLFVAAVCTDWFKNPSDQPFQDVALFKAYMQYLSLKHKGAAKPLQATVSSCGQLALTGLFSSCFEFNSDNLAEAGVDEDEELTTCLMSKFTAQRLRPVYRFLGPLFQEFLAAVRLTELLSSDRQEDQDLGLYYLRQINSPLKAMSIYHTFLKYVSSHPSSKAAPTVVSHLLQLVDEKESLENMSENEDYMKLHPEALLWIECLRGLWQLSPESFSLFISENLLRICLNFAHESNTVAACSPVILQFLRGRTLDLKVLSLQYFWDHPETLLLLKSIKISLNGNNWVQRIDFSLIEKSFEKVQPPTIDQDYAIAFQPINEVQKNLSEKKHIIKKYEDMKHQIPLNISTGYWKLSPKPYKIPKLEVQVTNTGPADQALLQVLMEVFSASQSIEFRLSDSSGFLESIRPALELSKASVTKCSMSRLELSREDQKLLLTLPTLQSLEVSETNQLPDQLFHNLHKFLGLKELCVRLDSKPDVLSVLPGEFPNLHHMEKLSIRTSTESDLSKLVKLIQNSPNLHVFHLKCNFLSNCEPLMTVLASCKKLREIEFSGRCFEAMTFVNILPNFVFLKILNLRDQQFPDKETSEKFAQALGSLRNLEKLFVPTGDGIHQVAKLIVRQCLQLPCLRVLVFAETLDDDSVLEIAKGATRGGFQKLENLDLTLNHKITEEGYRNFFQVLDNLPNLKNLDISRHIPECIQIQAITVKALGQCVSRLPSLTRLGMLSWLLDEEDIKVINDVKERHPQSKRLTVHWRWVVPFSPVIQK

## GFP-PrgJ (from UniProt P41785 1-101) (ligand)
  stoichiometry N (ligand per NAIP): 1
